The text below walks through data of patent publication US20170022258A1, “PEPTIDES FOR USE IN THE TREATMENT OF IL-1 RELATED DISEASES AND CONDITIONS” (C4M PHARMACEUTICALS PTY LTD., priority 2011, published 2017).

Non-standard residues stand in square brackets, D forms with d. No end group written: not given here.

The conditions of data set [1]: background statement; cited from earlier work.
Data set [2] relates to IL-1 stimulation of IL-8 in human skin fibroblasts. The data set can be described thus: Inhibition of IL-1 induced IL-8 in human fibroblasts. Type of data set: cell-based. Conditions: n=3; maximal activation with IL-1 only 2530±13 pg/ml. As for the experimental part: Inhibition of IL-1 induced IL-8 in human fibroblasts was determined using normal human dermal fibroblast cells cultured in DMEM with 10% fetal calf serum in 48-well plates.
Twenty-four hours before initiation of the experiment, the medium was changed to DMEM with 0.2% fetal calf serum. Each peptide was added to confluent cells, which were then pulsed for 30 min with rIL-I,B (which was obtained from R & D Systems) at 50 pg/ml. The cells were washed four times with PBS, and fresh DMEM/0.2% fetal calf serum was added to each well. After 5 hr of incubation, the culture media were collected and analyzed by ELISA for IL-8 (which was obtained from R & D Systems). Maximal activation, with IL-1 only, was 2530±13 pg/ml of IL-8. Nonspecific activation, determined in the presence of 1000-fold excess IL-1Ra, was 30±9 pg/ml of IL-8 (n=3).

Data set [3] deals with IL-1α-induced IL-8 production by HT-29 cells. The data set can be described thus: IL-1α induced IL-8 production by HT-29 colonic epithelial cells. Type of data set: cell-based, human. Conditions: IL-1ra 500 control. As for the experimental part:
(§1) Human colon epithelial cell lines HT-29 and Caco2 obtained from the European Collection of Animal Cell Cultures (ECACC) were used in cell cultures. Cells were routinely cultured at 37° C. in an atmosphere of 5% CO2 in 80 cm^2 tissue culture flasks in McCoy's and DMEM medium, respectively, supplemented with penicillin (10 u/ml), streptomycin (10 μg/ml), fungizone (0.5 μg/ml), and 10% (v/v) FCS (referred to as complete medium) until confluent.
(§2) Confluent monolayers were sub-cultured into 6-well plates for experimental protocols. Cells were grown in 6-well plates until confluent. Twenty-four hours prior to the experiment the confluent monolayers were washed and cultured in FCS-free McCoy's medium. Growth arrested cultures were then treated with fresh FCS-free medium and stimulated with vehicle controls or various doses of IL-1α added alone or in combination with other pro-inflammatory cytokines (TNF-α, IFN-γ) in the presence or absence of the peptide of sequence 4 or IL-1 ra, in a dose and time dependent manner.
(§3) Supernatants were collected, centrifuged to remove cellular debris and stored at −70° C. until assayed for extracellular inflammatory mediators. Total RNA for RT-PCR was extracted as described above. Cell counting and viability was routinely checked at the beginning and the end of the experiment by phase microscopy and by trypan blue exclusion using representative wells. Mycoplasma tests were performed during the experimental protocol. Production of soluble mediators was assessed by commercially available ELISA in supernatants, RT-PCR in total RNA extractants and nitric oxide, as described in Kolios, G, et al. (1995). Br J Pharmacol, 116, 2866-2872, the contents of which are incorporated herein by reference.
HT 29 and Caco2 colonic epithelial cell lines were stimulated with 10 ng/ml of IL-la in the presence of 100 or 500 ng/ml of the peptide of sequence 4.

Data set [4] has as its system IL-1α-induced IL-8 production by Caco2 cells. The data set can be described thus: IL-1α induced IL-8 production by Caco2 colonic adenocarcinoma cells. Type of data set: cell-based, human. Particulars: IL-1ra 100 ng/ml, IL-1α alone 476.93±78.9, n=3. As for the experimental part:
as §1, §2
(§4) Supernatants were collected, centrifuged to remove cellular debris and stored at −70° C. until assayed for extracellular inflammatory mediators. […] Production of soluble mediators was assessed by commercially available ELISA in supernatants, RT-PCR in total RNA extractants and nitric oxide, as described in Kolios, G, et al. (1995). […]

For data set [5], the system named is IL-1α+IFN-γ induced IL-8 production by HT-29 cells. Briefly: IL-1α+IFN-γ induced IL-8 production by HT-29 cells. Type of data set: cell-based, human. Particulars: IL-1ra control. The procedure:
as §1, §2, §3
Stimulation of HT-29 cells with a combination of pro-inflammatory cytokines induces increased secretion of chemokines, including IL-8 (as described in Kolios, G, et al. (1999). Eur J Immunol, 29, 530-536 the contents of which are herein incorporated by reference). […]

Data set [6] concerns IL-1α+IFN-γ induced IL-17 production by HT-29 cells. The data set can be described thus: IL-1α+IFN-γ induced IL-17 production by HT-29 cells. Conditions: IL-1ra control. Type of data set: cell-based, human. The procedure:
as §1, §2, §4

Data set [7] addresses IL-1 receptor (IL-1R) expressed on human monocytes (human) (UniProt P14778). The data set can be described thus: cell-based or functional assay.
For data set [8] the target is unchanged. Briefly: radioligand competition, 40 pM 125I-IL-1α on confluent human monocytes. Background: Displacement assays read how much labelled ligand stays bound in the presence of the test substance.
Data set [9] has as its target T1, IL-1 receptor (IL-1R) expressed on human monocytes (human), P14778.
T1 chain: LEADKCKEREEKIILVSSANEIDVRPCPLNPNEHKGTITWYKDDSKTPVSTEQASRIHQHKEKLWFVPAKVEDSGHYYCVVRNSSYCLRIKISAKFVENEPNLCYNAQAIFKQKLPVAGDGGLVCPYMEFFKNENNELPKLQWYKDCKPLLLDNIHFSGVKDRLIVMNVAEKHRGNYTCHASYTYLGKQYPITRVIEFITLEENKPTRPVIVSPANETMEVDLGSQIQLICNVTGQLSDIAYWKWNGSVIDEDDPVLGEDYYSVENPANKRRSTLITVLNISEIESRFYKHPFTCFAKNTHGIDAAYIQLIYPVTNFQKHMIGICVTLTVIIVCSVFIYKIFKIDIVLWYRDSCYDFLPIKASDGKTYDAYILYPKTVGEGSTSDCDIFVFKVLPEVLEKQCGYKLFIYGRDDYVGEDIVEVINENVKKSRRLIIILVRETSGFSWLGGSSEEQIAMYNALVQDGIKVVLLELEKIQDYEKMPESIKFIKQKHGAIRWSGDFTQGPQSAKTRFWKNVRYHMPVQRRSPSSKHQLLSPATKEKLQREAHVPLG
Briefly: cell-based or functional assay.

For data set [10], the target named is T1, IL-1 receptor (IL-1R) expressed on …. Briefly: radioligand competition, 40 pM 125I-IL-1α on confluent human monocytes.

Consider “recombinant IL-1Ra: recombinant full length IL-1Ra approved for methotrexate resistant rheumatoid arthritis (Amgen: Kineret-Anakinra)”, for which, in data set [1], the half-life result is “approximately six”.
With “IL-1ra: IL-1R antagonist, member of the IL-1 cytokine family; competitively inhibits the activities of IL-1 [reference compound]”, in [2], the “IL-8, nonspecific activation in the presence of 1000-fold excess IL-1Ra” value is 30 ± 9 pg/mL. The “IL-8 production in the absence of IL-1α” value in [3] and in [5] was “did not result in production of IL-8” each time. Also, in data set [4], the “IL-1α-induced IL-8 secretion” value is reported as 923.95±63.69 pg/ml per 106 cells. In data set [6], the “IL-17 production without cytokine stimulation” value was “did not produce significant amounts of IL-17”.
For orientation: IC50 means the concentration at which inhibition is half-maximal. A lower IC50 goes with higher potency. On to Ac-[dL][dP][dL][dA][dY][dP][dQ][dW][dY]G[dP][dT][dW][dE][dF][dS][dS][dV][dN][dA][dT] (not fully specified (residue 10); printed as Ac-LPLAYPQWYGPTWEFSSVNAT) [peptide of SEQ ID NO: 18 (Ac-…, D-amino acids)], for which, in [7], the IC50, in vitro inhibition of IL-1 stimulation of IL-8 in human skin fibroblasts (rIL-1β 50 pg/ml, IL-8 ELISA) was 810 nM. This molecule yielded a 50% inhibitory concentration (IC50) in data set [8] of 190 nM.
Ac-[dL][dP][dL][dA][dY][dP][dQ][dW][dY]G[dP][dT][dW][dE][dF] came in with an IC50, in vitro inhibition of IL-1 stimulation of IL-8 in human skin fibroblasts (rIL-1β 50 pg/ml, IL-8 ELISA) in [9] of 5.9 nM. Moreover, the IC50 in [10] was 6.9 nM.
As to Ac-[dL][dP][dL][dA][dY][dP][dQ][dW][dY][dR][dE]G[dS][dQ][dR][dW][dR][dD][dY]G[dD] (not fully specified (residues 12, 20); printed as Ac-LPLAYPQWYREGSQRWRDYGD) [peptide of SEQ ID NO: 21 (Ac-…, D-amino acids)], the IC50, in vitro inhibition of IL-1 stimulation of IL-8 in human skin fibroblasts (rIL-1β 50 pg/ml, IL-8 ELISA) in data set [7] turned out to be 730 nM. In addition, in [8], the IC50 was found to be 240 nM.
In turn, Ac-[dL][dP][dL][dA][dY][dP][dQ][dW][dY][dY][dA][dN][dS][dE][dE][dW][dT][dF] [peptide of SEQ ID NO: 16 (Ac-…, D-amino acids)] displayed an IC50, in vitro inhibition of IL-1 stimulation of IL-8 in human skin fibroblasts (rIL-1β 50 pg/ml, IL-8 ELISA) in data set [7] of 120 nM. Moreover, the IC50 in data set [8] came out at 22 nM.
